T1: CD24, membrane-associated, on human cells (Homo sapiens, UniProt P25063)
T1 chain: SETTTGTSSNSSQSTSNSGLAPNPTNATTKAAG

T2: His-tagged CD24 antigen (Homo sapiens (species assumed), UniProt P25063)
T2 chain: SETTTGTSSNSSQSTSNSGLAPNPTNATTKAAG


Legend:
[1] = target: T1, CD24, membrane-associated, on human …; assay: flow cytometry on cells
His-tagged CD24 antigen = target: T2, His-tagged CD24 antigen; assay: ELISA

binding result [1] | binding result (His-tagged CD24 antigen) | Binder
binds | binds | PPAB001, bispecific antibody fusion protein against CD47 and CD24 (bispecific antibody, V domains shown) VH: VKLVESGGGLVQPGGSLKLSCAASGDSVTSKSMSWVRQAPSGGLQWIGRTYPDNGDSSYTPSVRSRFIISRDNAKNTLYLQMRKVRSEDTGFYYCARQGDYWGQGTTLTVSS VL: DVVMTQTPLTLSLSPGQPASISCKSSQSGSIGRAKTYLNWYQQRPGQAPKLLIYDASKLDSGVPDRFTGSGSGTDFTLKISRVEAEDLGVYYCWQGTHFPYTFGGGTKLEIK
binds | – | humanized anti-CD24 antibody with common light chain (antibody, V domains shown) VH: VKLVESGGGLVQPGGSLKLSCAASGDSVTSKSMSWVRQAPSGGLQWIGRTYPDNGDSSYTPSVRSRFIISRDNAKNTLYLQMRKVRSEDTGFYYCARQGDYWGQGTTLTVSS VL: DVVMTQTPLTLSLSPGQPASISCKSSQSGSIGRAKTYLNWYQQRPGQAPKLLIYDASKLDSGVPDRFTGSGSGTDFTLKISRVEAEDLGVYYCWQGTHFPYTFGGGTKLEIK

Reference: publication PMC10689933 (Molecular Therapy Oncolytics, 2023)
